Tests used:
[1] = system: His-PhbF (Herbaspirillum seropedicae SmR1); assay: EMSA; details: apparent; 100 ng calf thymus DNA; tetramer concentration; EMSA: 10 mM Tris-HCl pH 7.5, 80 mM NaCl, 1 mM EDTA, 10 mM beta-mercaptoethanol, 5% glycerol, 20 nM DNA, 100 ng calf thymus DNA in 10 uL, 30 C 5 min; footprint: …
[2] = biological target: the molecule itself; assay: SEC; gel filtration chromatography of purified His-PhbF; apparent molecular weight 104.3 kDa; conditions not told in the main text (Additional file 1, Figure S2)

Molecule | Kd [1] [nM] | stoichiometry N [2]
phaP1 promoter | 150 | 
phbF promoter (EMSA) | 450 | 
His-PhbF (H. seropedicae SmR1 PhbF protein fused to an N-terminal six-histidine tag) (natural protein, Herbaspirillum seropedicae SmR1, UniProt D8J0C9 1-188, looked up, the phbF gene was amplified from the genome and cloned into pET-28a (pKADO3); The pET-28a vector residues between the His tag and the protein are not described; also called His-tag PhbF protein; source: E. coli BL21(DE3) carrying pKADO3, purified (Hi-Trap Chelating Ni2+ column); not shown: His6, N-terminal, kept) MTTAKNSADRLIKKYPNRRLYDTQTSSYITLTDVKQLVLDNEEFTVVDAKSGDDLTRSILLQIILEEESHGVPMFSSGALSQIIRYYGHAMQGMMGNYLEKNIQTFIDIQNKLAENSKGFYEGKPFSPEMWTQFMNVQGPMMQGMMSNYIEQSKNLFIQMQEQMQSQTKNMFGTFPFGNPGAGPDQKK |  | 4

Reference: PMC3206438, “Identification and characterization of PhbF: A DNA binding protein with regulatory role in the PHB metabolism of Herbaspirillum seropedicae SmR1” (BMC Microbiology, 2011)
